The supplement of paper PMC10598134
± gives the standard deviation.

Assay: collision cross section of modified peptide (TIMS, N2, iRT-aligned); higher = larger / more extended gas-phase ion
Summary of the method: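 On a timsTOF Pro/HT (dda-PASEF, nitrogen, ~2.4 mbar), synthetic peptide pools were analysed after a 120-min nanoflow C18 separation at 60 °C and identified in MaxQuant. Three reference ions served for 1/K0 calibration, with run-wise alignment to the median iRT peptide deviation. Collision cross section comes from the Mason-Schamp equation, using the most abundant feature per charge state averaged over 1–3 technical replicates.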

[1] = charge state: 2, modification: Malonyl
[2] = charge state: 3, modification: Malonyl
[3] = charge state: 2, modification: Methyl (K)
[4] = charge state: 3, modification: Methyl (K)
[5] = charge state: 2, modification: Propionyl
[6] = charge state: 2, modification: Succinyl
[7] = charge state: 3, modification: Succinyl
[8] = charge state: 2, modification: Trimethyl (K)
[9] = charge state: 3, modification: Trimethyl (K)
[10] = charge state: 2, modification: hydroxyisobutyryl
[11] = charge state: 3, modification: hydroxyisobutyryl
[12] = charge state: 2, modification: Nitro (Y)
[13] = charge state: 2, modification: Phospho (Y)
[14] = charge state: 2, modification: Acetyl (K)
[15] = charge state: 3, modification: Acetyl (K)
[16] = charge state: 2, modification: Butyryl
[17] = charge state: 3, modification: Butyryl
[18] = charge state: 3, modification: Crotonyl
[19] = charge state: 3, modification: Dimethyl (K)
[20] = charge state: 2, modification: Formyl
[21] = charge state: 3, modification: Glutarylation
[22] = charge state: 3, modification: GlyGly (K)
[23] = charge state: 2, modification: Glutarylation
[24] = charge state: 2, modification: GlyGly (K)
[25] = charge state: 2, modification: HexNAc (ST)
[26] = charge state: 3, modification: HexNAc (ST)
[27] = charge state: 2, modification: Biotin
[28] = charge state: 2, modification: Crotonyl
[29] = charge state: 2, modification: Dimethyl (K)

Sequence: TEVLSPNSKVESK [_TEVLSPNSK(Malonyl)VESK_]
- collision cross section [1]: 400.58 ± 1.9 Å²
- collision cross section [2]: 444.22 ± 3.4 Å²

Sequence: TEVLSPNSKVESK [_TEVLSPNSK(Methyl (K))VESK_]
- collision cross section [3]: 412.51 ± 2.6 Å²
- collision cross section [4]: 437.62 ± 4.3 Å²

Sequence: TEVLSPNSKVESK [_TEVLSPNSK(Propionyl)VESK_]
- collision cross section [5]: 413.62 ± 0.97 Å²
- collision cross section (charge state: 3, modification: Propionyl): 453.73 Å²

Sequence: TEVLSPNSKVESK [_TEVLSPNSK(Succinyl)VESK_]
- collision cross section [6]: 402.26 ± 0.79 Å²
- collision cross section [7]: 458.68 ± 13 Å²

Sequence: TEVLSPNSKVESK [_TEVLSPNSK(Trimethyl (K))VESK_]
- collision cross section [8]: 405.78 ± 0.61 Å²
- collision cross section [9]: 479.92 ± 1.6 Å²

Sequence: TEVLSPNSKVESK [_TEVLSPNSK(hydroxyisobutyryl)VESK_]
- collision cross section [10]: 419.54 ± 0.31 Å²
- collision cross section [11]: 455.3 ± 1.9 Å²

Sequence: TEVNSGFFYK [_TEVNSGFFY(Nitro (Y))K_]
- collision cross section [12]: 367.43 ± 0.8 Å²

Sequence: TEVNSGFFYK [_TEVNSGFFY(Phospho (Y))K_]
- collision cross section [13]: 373.38 ± 0.68 Å²

Sequence: TFGKAAGPSLSHTSGGTQSK [_TFGK(Acetyl (K))AAGPSLSHTSGGTQSK_]
- collision cross section [14]: 486.77 ± 4.6 Å²
- collision cross section [15]: 516.14 ± 6 Å²

Sequence: TFGKAAGPSLSHTSGGTQSK [_TFGK(Butyryl)AAGPSLSHTSGGTQSK_]
- collision cross section [16]: 496.92 ± 1.5 Å²
- collision cross section [17]: 514.77 ± 3.5 Å²

Sequence: TFGKAAGPSLSHTSGGTQSK [_TFGK(Crotonyl)AAGPSLSHTSGGTQSK_]
- collision cross section [18]: 515.47 ± 1.3 Å²

Sequence: TFGKAAGPSLSHTSGGTQSK [_TFGK(Dimethyl (K))AAGPSLSHTSGGTQSK_]
- collision cross section [19]: 547.87 ± 1.3 Å²

Sequence: TFGKAAGPSLSHTSGGTQSK [_TFGK(Formyl)AAGPSLSHTSGGTQSK_]
- collision cross section [20]: 488.52 ± 0.72 Å²
- collision cross section (charge state: 3, modification: Formyl): 508.22 ± 1.5 Å²

Sequence: TFGKAAGPSLSHTSGGTQSK [_TFGK(Gluratylation)AAGPSLSHTSGGTQSK_]
- collision cross section [21]: 518.15 ± 2 Å²

Sequence: TFGKAAGPSLSHTSGGTQSK [_TFGK(GlyGly (K))AAGPSLSHTSGGTQSK_]
- collision cross section [22]: 526.57 ± 0.59 Å²

Sequence: TFGKAAGPSLSHTSGGTQSK [_TFGK(Malonyl)AAGPSLSHTSGGTQSK_]
- collision cross section [2]: 514.27 ± 0.92 Å²

Sequence: TFGKAAGPSLSHTSGGTQSK [_TFGK(Methyl (K))AAGPSLSHTSGGTQSK_]
- collision cross section [4]: 525.9 ± 1.3 Å²

Sequence: TFGKAAGPSLSHTSGGTQSK [_TFGK(Succinyl)AAGPSLSHTSGGTQSK_]
- collision cross section [6]: 476.24 Å²
- collision cross section [7]: 513.01 ± 0.73 Å²

Sequence: TFGKAAGPSLSHTSGGTQSK [_TFGK(Trimethyl (K))AAGPSLSHTSGGTQSK_]
- collision cross section [9]: 559.57 ± 0.94 Å²

Sequence: TFGKAAGPSLSHTSGGTQSK [_TFGK(hydroxyisobutyryl)AAGPSLSHTSGGTQSK_]
- collision cross section [10]: 498.68 ± 0.33 Å²
- collision cross section [11]: 512.39 ± 2.8 Å²

Sequence: TGGTQTDLFTCGKCK [_TGGTQTDLFTCGK(Butyryl)CK_]
- collision cross section [16]: 444.65 Å²

Sequence: TGGTQTDLFTCGKCK [_TGGTQTDLFTCGK(Gluratylation)CK_]
- collision cross section [23]: 442.58 Å²

Sequence: TGGTQTDLFTCGKCK [_TGGTQTDLFTCGK(GlyGly (K))CK_]
- collision cross section [24]: 442.06 Å²
- collision cross section [22]: 489.77 ± 1.1 Å²

Sequence: TGGTQTDLFTCGKCK [_TGGTQTDLFTCGK(Malonyl)CK_]
- collision cross section [1]: 436.14 ± 0.67 Å²

Sequence: TGGTQTDLFTCGKCK [_TGGTQTDLFTCGK(Succinyl)CK_]
- collision cross section [6]: 437.09 Å²

Sequence: TGGTQTDLFTCGKCK [_TGGTQTDLFTCGK(hydroxyisobutyryl)CK_]
- collision cross section [10]: 448.92 Å²

Sequence: TGPPGSTGSR [_TGPP(Hydroxyproline)GSTGSR_]
- collision cross section (charge state: 2, modification: Hydroxyproline): 312.97 ± 0.79 Å²

Sequence: TGPPGSTGSRGPPGPPGR [_TGPPGSTGSRGPPGPP(Hydroxyproline)GR_]
- collision cross section (charge state: 3, modification: Hydroxyproline): 472.54 ± 0.36 Å²

Sequence: THLAPYSDELR [_THLAPY(Nitro (Y))SDELR_]
- collision cross section [12]: 377.13 ± 2.5 Å²
- collision cross section (charge state: 3, modification: Nitro (Y)): 453.98 ± 1.8 Å²

Sequence: THLAPYSDELR [_THLAPY(Phospho (Y))SDELR_]
- collision cross section [13]: 373.88 ± 0.063 Å²
- collision cross section (charge state: 3, modification: Phospho (Y)): 446.73 ± 1.1 Å²

Sequence: THLGEALAPLSK [_THLGEALAPLS(HexNAc (ST))K_]
- collision cross section [25]: 397.68 ± 0.13 Å²
- collision cross section [26]: 475.05 ± 25 Å²

Sequence: TLDEILQEKK [_TLDEILQEK(Acetyl (K))K_]
- collision cross section [14]: 377 ± 0.3 Å²
- collision cross section [15]: 448.44 Å²

Sequence: TLDEILQEKK [_TLDEILQEK(Biotin)K_]
- collision cross section [27]: 403.31 Å²

Sequence: TLDEILQEKK [_TLDEILQEK(Butyryl)K_]
- collision cross section [16]: 383.05 ± 1.3 Å²
- collision cross section [17]: 449.71 ± 2 Å²

Sequence: TLDEILQEKK [_TLDEILQEK(Crotonyl)K_]
- collision cross section [28]: 381.71 ± 0.8 Å²
- collision cross section [18]: 444.38 ± 1.6 Å²

Sequence: TLDEILQEKK [_TLDEILQEK(Dimethyl (K))K_]
- collision cross section [29]: 379.42 ± 0.37 Å²
- collision cross section [19]: 430.63 ± 2 Å²

Sequence: TLDEILQEKK [_TLDEILQEK(Formyl)K_]
- collision cross section [20]: 372.98 ± 1.9 Å²

Sequence: TLDEILQEKK [_TLDEILQEK(Gluratylation)K_]
- collision cross section [23]: 387.75 ± 3.2 Å²
- collision cross section [21]: 452.89 ± 2.4 Å²

Sequence: TLDEILQEKK [_TLDEILQEK(GlyGly (K))K_]
- collision cross section [24]: 390.82 ± 2.5 Å²
- collision cross section [22]: 438.72 ± 1.6 Å²

Sequence: TLDEILQEKK [_TLDEILQEK(Malonyl)K_]
- collision cross section [1]: 380.87 ± 4.1 Å²

Sequence: TLDEILQEKK [_TLDEILQEK(Methyl (K))K_]
- collision cross section [3]: 377.9 ± 1.7 Å²
- collision cross section [4]: 432.26 ± 5.2 Å²

Sequence: TLDEILQEKK [_TLDEILQEK(Propionyl)K_]
- collision cross section [5]: 380.38 Å²

Sequence: TLDEILQEKK [_TLDEILQEK(Succinyl)K_]
- collision cross section [6]: 382.2 ± 5.9 Å²

Sequence: TLDEILQEKK [_TLDEILQEK(Trimethyl (K))K_]
- collision cross section [8]: 388.3 ± 0.013 Å²
- collision cross section [9]: 439.75 ± 2.4 Å²

Sequence: TLDEILQEKK [_TLDEILQEK(hydroxyisobutyryl)K_]
- collision cross section [10]: 386.54 ± 0.81 Å²

Sequence: TLHLSHLNRFPAR [_TLHLSHLNR(Citrullination (R))FPAR_]
- collision cross section (charge state: 3, modification: Citrullination (R)): 509.04 ± 32 Å²

Sequence: TLHLSHLNRFPAR [_TLHLSHLNR(Methyl (R))FPAR_]
- collision cross section (charge state: 3, modification: Methyl (R)): 503.65 Å²

Sequence: TLQKQSVVYGGK [_TLQK(Acetyl (K))QSVVYGGK_]
- collision cross section [14]: 392.07 ± 0.61 Å²

Sequence: TLQKQSVVYGGK [_TLQK(Biotin)QSVVYGGK_]
- collision cross section [27]: 406.33 Å²

Sequence: TLQKQSVVYGGK [_TLQK(Butyryl)QSVVYGGK_]
- collision cross section [16]: 396.52 ± 0.85 Å²

Sequence: TLQKQSVVYGGK [_TLQK(Crotonyl)QSVVYGGK_]
- collision cross section [28]: 396.64 ± 0.8 Å²

Sequence: TLQKQSVVYGGK [_TLQK(Dimethyl (K))QSVVYGGK_]
- collision cross section [29]: 397.97 ± 0.88 Å²
- collision cross section [19]: 459.07 ± 1.6 Å²

Sequence: TLQKQSVVYGGK [_TLQK(Formyl)QSVVYGGK_]
- collision cross section [20]: 387.94 ± 1 Å²

Sequence: TLQKQSVVYGGK [_TLQK(Gluratylation)QSVVYGGK_]
- collision cross section [23]: 399.42 ± 0.6 Å²

Sequence: TLQKQSVVYGGK [_TLQK(GlyGly (K))QSVVYGGK_]
- collision cross section [24]: 403.57 ± 1.5 Å²
- collision cross section [22]: 459.43 ± 2 Å²

Sequence: TLQKQSVVYGGK [_TLQK(Malonyl)QSVVYGGK_]
- collision cross section [1]: 395.45 ± 1.1 Å²

Sequence: TLQKQSVVYGGK [_TLQK(Methyl (K))QSVVYGGK_]
- collision cross section [3]: 395.77 ± 1.4 Å²
- collision cross section [4]: 446.7 ± 4.9 Å²

Sequence: TLQKQSVVYGGK [_TLQK(Propionyl)QSVVYGGK_]
- collision cross section [5]: 393.92 ± 0.49 Å²

Sequence: TLQKQSVVYGGK [_TLQK(Succinyl)QSVVYGGK_]
- collision cross section [6]: 397.13 ± 0.77 Å²

Sequence: TLQKQSVVYGGK [_TLQK(Trimethyl (K))QSVVYGGK_]
- collision cross section [8]: 405 ± 1.6 Å²
- collision cross section [9]: 449.39 ± 2.4 Å²

Sequence: TLQKQSVVYGGK [_TLQK(hydroxyisobutyryl)QSVVYGGK_]
- collision cross section [10]: 398.93 ± 0.3 Å²

Sequence: TLTPASSPVSSPSK [_TLTPASSPVSSPS(HexNAc (ST))K_]
- collision cross section [25]: 404.79 Å²

Sequence: TLTPASSPVSSPSKHGDR [_TLTPASSPVSSPS(HexNAc (ST))KHGDR_]
- collision cross section [26]: 519.55 ± 0.18 Å²

Sequence: TPLTHALPGLSEQEGQK [_T(HexNAc (ST))PLTHALPGLSEQEGQK_]
- collision cross section [26]: 513.42 ± 0.96 Å²

Sequence: TPNLYIYSKK [_TPNLYIYSK(Acetyl (K))K_]
- collision cross section [14]: 385.54 ± 0.92 Å²

Sequence: TPNLYIYSKK [_TPNLYIYSK(Biotin)K_]
- collision cross section [27]: 409.6 Å²

Sequence: TPNLYIYSKK [_TPNLYIYSK(Butyryl)K_]
- collision cross section [16]: 388.09 ± 0.85 Å²
- collision cross section [17]: 439.93 Å²

Sequence: TPNLYIYSKK [_TPNLYIYSK(Crotonyl)K_]
- collision cross section [28]: 385.36 Å²
- collision cross section [18]: 432.18 Å²

Sequence: TPNLYIYSKK [_TPNLYIYSK(Dimethyl (K))K_]
- collision cross section [29]: 376.02 ± 0.46 Å²
- collision cross section [19]: 432.06 ± 2.8 Å²
